Entries after “also recorded” stand apart in the source; their conditions may differ.
B1: Pra1: enzyme derived from T. harzianum with proteolytic activity, trypsin type serine-endopeptidase, amino acid sequence SEQ. ID. NO.: 1 (protein, listed as Trichoderma harzianum)
chain: MAPVLAIASVLAALPALTMGAAITPRGSDIVGGTTAALGEFPYIVSLSTGGSHFCGGVLIDSRTVVTAGHCTIDQRASSVKVRAGTLTWASGGTQVGVSSLTLHPSYTVDSQGVPDNDVGVWHLATAIPTSSTIGYATLPASGSDPAAGTTLTVAGWGTTSENSNSLPSTLRKVSVPVVARATCDSDYDGEISNNMFCAAVAAGGKDSCSGDSGGPIIDPSGTLVGVVSWGQGCAERGFPGVYTRLGNYVSFINSNRG

How the values were obtained:
[1] = system: Pra1; test: Inhibition of proteolytic activity of Pra1 by specific inhibitors; assay type: biochemical, T. harzianum; conditions: 1 mM inhibitor, preincubation 30 minutes at 30° C., pH 7.5
Method: In order to determine the catalytic type to which Pra1 belongs, specific inhibitors were used of the different known catalytic mechanisms. The effect of said inhibitors on the activity of Pra1 was analysed by preincubating the enzymatic solution for 30 minutes at 30° C. in 100 mM phosphate buffer pH 7.5 with said specific inhibitors of different known catalytic mechanisms:
1 mM PMSF (100 mM initial solution in isopropanol),
1 mM EDTA (100 mM initial solution in water),
0.1 mM Pepstatin (10 mM initial solution in DMSO),
1 mM Iodoacetamide (100 mM initial solution in water, prepared at the time of use).
In parallel to the enzymatic assay, controls were also performed in the presence of organic solvent in which the inhibitor was dissolved. The residual activity was determined by the percentage of activity in absence of inhibitor.

[2] = Endopeptidase activity on synthetic peptide substrate for trypsins; assay type: biochemical; conditions: optimum conditions of activity (30° C. and pH 7.5); 1 U = 1 nmol p-NA per minute
Method: (§1) Taking into account the information obtained in Example 3.2, the endopeptidase activity of Pra1 on 3 synthetic peptides (Sigma) is assayed with the amino and carboxyl terminals blocked, with allows the different types of activities to be differentiated within the S1 family of peptidases:
N-acetyl-Ile-Glu-Ala-Arg-pNA (Arg-pNA) for trypsins,
(§2) The enzymatic solution (75 ng) was prepared in 90 μl of 100 mM sodium phosphate buffer and preincubated for 5 minutes at 30° C. The reactions were initiated by addition of 10 μl of preheated 10 mM substrate solution (prepared from 100 mM solutions in DMSO stored at −20° C.). After 20 minutes of incubation, the reactions were stopped by addition of 50 μl of 2% (v/v) acetic acid. Then, the absorbance of 100 μl at 405 nm was measured in microtitre plates with 96 wells (Inmunoplate Maxisorp, NUNC) using a Titertek Multiskan Plus 311 A0 (Flow Laboratories) automatic reader, and the nmoles of p-nitroaniline (p-NA) released per minute were calculated. In parallel, enzyme blanks with no substrate and substrate without enzyme were also processed. The standard calibration line was constructed with solutions of para-nitroanaline (p-NA) (Sigma) at known concentrations (0-1.25 mM) prepared from an initial 5 mM solution. This solution was prepared by dissolving p-NA beforehand in a minimum volume of ethanol.

[3] = Endopeptidase activity on synthetic peptide substrate for elastases; assay type: biochemical; conditions: 1 mM substrate, 30° C., 20 minutes
Method: as §1
N-succinyl-Ala-Ala-Pro-Leu-pNA (Leu-pNA) for elastases, and
as §2

[4] = Endopeptidase activity on synthetic peptide substrate for chymotrypsins/subtilisins; assay type: biochemical; conditions: 1 mM substrate, 30° C., 20 minutes
Method: as §1
N-succinyl-Ala-Ala-Pro-Phe-pNA (Phe-pNA) for chymotrypsins/subtilisins (this latter belongs to the S8 family).
as §2, with “This solution was prepared by dissolving p-NA beforehand in a minimum volume of ethanol.” left out

[5] = Determination of kinetic parameters Km, Kcat, Kcat/Km (Lineweaver-Burk); assay type: biochemical; conditions: Arg-pNA 0.05-2 mM, 30° C., pH 7.5
Method: The determination of the kinetic parameters Km, Kcat, and Kcat/Km was performed from the initial rates calculated in assays with different concentrations of substrate (0.05-2 mM). For this, the substrate was prepared in 0.99 ml of 100 mM sodium phosphate buffer pH 7.5 and preincubated at 30° C. Then the reaction was started by the addition of 10 μl of the purified proteases Pra1 (2.5 ppm) preheated to the same temperature. The activity was monitored for 10 minutes in a Shimadzu UV-160A spectrophotometer at 405 nm kept at 30 ? C by a thermostatA unit of activity represented the release of one 1 nmol of p-NA per minute in the assay conditions. Solutions of enzymes without substrate, and substrate without enzyme were prepared as blanks. The standard calibration curve was constructed with solutions of p-NA (Sigma) at known concentrations (0-200 μM), prepared as indicated above. The kinetic parameters were calculated from representations of double reciprocals or by Lineweaver-Burk (1/V vs 1/S).

[6] = Effect of temperature on the activity of Pra1; assay type: biochemical
Method: In order to determine the optimum temperature for activity of Pra1, the enzymatic assay was performed over a range of temperatures comprised between 30° C. and 85° C. The effect of temperature on the stability of Pra1 was determined by preincubating the enzymatic solution in 100 mM sodium phosphate buffer pH 7.5 for 20 minutes at different temperatures (30-85° C.). The substrate used in these assays was the synthetic peptide N-acetyl-Ile-Glu-Ala-Arg-pNA, specific for trypsins.

[7] = Effect of pH on the activity of Pra1; assay type: biochemical
Method: (§3) For the determination of the optimum pH for activity of Pra1, the assay was carried out in the following buffer systems: 100 mM sodium acetate (pH 3-5.5), 100 mM sodium phosphate (pH 6-7), and 100 mM Tris/HCl (pH 7.5-9). The effect of pH on the stability of Pra1 was determined by pre-incubating the enzymatic solution (750 ng) for 24 hours at 4° C. in […] of the aforementioned buffers. Then, aliquots of 10 μl were taken for performing the assay in standard conditions.

[8] = assay type: physicochemical; conditions: preincubation 24 hours at 4° C.
Method: as §3
The activity decreased as the pH of preincubation increased, with a reduction of 40% at pH 7.

[9] = Isoelectric point by chromatofocussing; assay type: physicochemical; conditions: observed
Method: The purification of enzymes with proteolytic activity obtained from the protocol described in Example 1 was performed from the culture filtrate of T. harzianum CECT 2413 kept for 48 hours in a MM medium with cell walls of C. acutatum as the carbon source. To do this, 2 ml of filtrate dialysed and concentrated 75 times were submitted to chromatofocussing to separate proteins on the basis of their isoelectric point. The elution profiles obtained show two peaks of proteolytic activity on azocasein, one eluted at basic pH, coinciding with the main protein peak, and another at acid pH.

Molecule | effect on the lytic activity of Pra1 [1] | specific activity on Arg-pNA [2] | lytic activity on Leu-pNA (elastase activity) [3] | lytic activity on Phe-pNA (chymotrypsin/subtilisin activity) [4] | Kcat [5] | Km [5] | activity at 30° C. ([6]; 30° C.) | activity at 45° C. ([6]; 45° C.) | activity above 55° C. ([6]; above 55° C.) | optimum temperature for activity ([6]; pH 7.5) | optimum pH for activity [7] | activity in buffers with pH greater than 8.5 or less than 6.5 ([7]; pH greater than 8.5 or less than 6.5) | reduction of activity after preincubation at pH 7 ([8]; pH 7) | proteolytic activity after preincubation at pH 9 ([8]; pH 9) | isoelectric point (Ip) [9]
O=S(=O)(F)Cc1ccccc1 [PMSF] | drastically inhibited |  |  |  |  |  |  |  |  |  |  |  |  |  | 
NC(=O)CI [iodoacetamide, Iodoacetamide] | weak effect |  |  |  |  |  |  |  |  |  |  |  |  |  | 
B1 |  | 94,800 U/mg | No lytic activity; also recorded: does not have activity | No lytic activity; also recorded: does not have activity | 39.64 s⁻¹ | 220 µM | 95% | 16% | no activity was detected | ~35 °C | 7.5 | decreased rapidly | 40% | No proteolytic activity was detected | 4.7-4.9

— patent US20040115188A1, “Enzyme with proteolytic activity” (priority 2000, published 2004)
